Measurements as given in paper PMC2885824.

Target: human alpha-thrombin (Homo sapiens, UniProt P00734;P00734 328-363;364-622)
Test: competition

GGTTGGTGTGGTTGG (structured_DNA) [15nt anti-thrombin DNA aptamer]: binds.
